# Data: publication PMC6743029
# B1: SR-BI (scavenger receptor class B, type I): tunicamycin (protein)
# parent chain: MGCSAKARWAAGALGVAGLLCAVLGAVMIVMVPSLIKQQVLKNVRIDPSSLSFNMWKEIPIPFYLSVYFFDVMNPSEILKGEKPQVRERGPYVYREFRHKSNITFNNNDTVSFLEYRTFQFQPSKSHGSESDYIVMPNILVLGAAVMMENKPMTLKLIMTLAFTTLGERAFMNRTVGEIMWGYKDPLVNLINKYFPGMFPFKDKFGLFAELNNSDSGLFTVFTGVQNISRIHLVDKWNGLSKVDFWHSDQCNMINGTSGQMWPPFMTPESSLEFYSPEACRSMKLMYKESGVFEGIPTYRFVAPKTLFANGSIYPPNEGFCPCLESGIQNVSTCRFSAPLFLSHPHFLNADPVLAEAVTGLHPNQEAHSLFLDIHPVTGIPMNCSVKLQLSLYMKSVAGIGQTGKIEPVVLPLLWFAESGAMEGETLHTFYTQLVLMPKVMHYAQYVLLALGCVLLLVPVICQIRSQVGAGQRAARADSHSLACWGKGASDRTLWPTAAWSPPPAAVLRLCRSGSGHCWGLRSTLASFACRVATTLPVLEGLGPSLGGGTGS
# Experiment: Western blot, Huh7.5.1 lysates, 16 h
# Details: glycan lost; control: untreated
protein,measurement,value
B1,expression_or_secretion,decreases
